Measured values: patent US20190211097A1
Each block holds one substance with its values, some of them ahead of it.

Molecular target: human CD32a (FcgammaRIIa) on washed human platelets (human) (UniProt P12318)
Assay: cell-based or functional assay

Chain of human CD32a (FcgammaRIIa) on washed human platelets (human) (P12318 34-317 limits assumed): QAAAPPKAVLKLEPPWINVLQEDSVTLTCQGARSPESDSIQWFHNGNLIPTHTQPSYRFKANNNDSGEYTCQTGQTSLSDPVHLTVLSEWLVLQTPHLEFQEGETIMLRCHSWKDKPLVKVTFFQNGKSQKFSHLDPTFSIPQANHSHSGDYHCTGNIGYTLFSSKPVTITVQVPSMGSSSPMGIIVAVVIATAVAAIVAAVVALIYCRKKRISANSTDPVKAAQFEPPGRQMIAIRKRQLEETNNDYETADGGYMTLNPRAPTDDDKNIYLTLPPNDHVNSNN
Chain of M90 anti-CD40L mAb + M91 anti-CD40L mAb + CD40L immune complex (a polyclonal immune complex) (P29965 113-261, one chain of several): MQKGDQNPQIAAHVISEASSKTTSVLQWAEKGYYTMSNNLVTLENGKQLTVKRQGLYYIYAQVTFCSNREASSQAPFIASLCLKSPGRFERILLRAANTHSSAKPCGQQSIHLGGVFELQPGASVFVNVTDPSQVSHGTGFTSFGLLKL
Chain of M90 anti-CD40L mAb + CD40L immune complex (P29965 113-261, one chain of several): as above

Substance: M90 anti-CD40L mAb + M91 anti-CD40L mAb + CD40L immune complex (a polyclonal immune complex) (from UniProt P29965 113-261)
washed human platelet aggregation induced by the IC (IC concentration): 1000 nM

Substance: deglycosylated native mouse IV.3 IgG2b mAb (antibody)
mAb concentration that blocked 250 nM M90+CD40L IC-induced platelet aggregation: 7 nM

Substance: native chimeric IV.3 human IgG1 mAb (antibody)
mAb concentration needed to block 500 nM M90+CD40L IC-induced platelet aggregation: < 5 nM

Second part, the substance after the results:

washed human platelet aggregation induced by the IC (IC concentration): 250 nM
Substance: M90 anti-CD40L mAb + CD40L immune complex (from UniProt P29965 113-261)

mAb concentration that blocked 250 nM HIT-like IC-induced platelet aggregation: 40 nM | mAb concentration that blocked 500 nM M90+CD40L IC-induced platelet aggregation: 6 nM | mAb concentration that blocked 1000 nM M90+M91+CD40L IC-induced platelet aggregation: 25 nM | mAb concentration that blocked APS-like IC-induced platelet aggregation: 33 nM | mAb concentration that did not inhibit 500 nM M90+CD40L IC-induced platelet aggregation: 2 nM | mAb concentration that inhibited 500 nM M90+CD40L IC-induced platelet aggregation: 3 nM | platelet activation by the combination of hIV.3.1 (25 nM), hAT-10 (90 nM) and MDE-8 (75 nM), all IgG1 E269R: 25 nM | platelet aggregation by the combination of hAT-10 (2 nM), hIV.3.1 (150 nM) and MDE-8 (150 nM), all IgG1 E269R: 150 nM
Substance: effector-deficient humanized IV.3.1 IgG1 E269R mAb (antibody)
